Data published in FireProtDB (doi:10.1093/protein/11.3.213).
“And” between values parts separate entries of the source, which are not always exact repeats. Identical values can stand only once.

B1: Endolysin, P03706 (parent)
chain: MVEINNQRKAFLDMLAWSEGTDNGRQKTRNHGYDVIVGGELFTDYSDHPRKLVTLNPKLKSTGAGRYQLLSRWWDAYRKQLGLKDFSPKSQDAVALQQIKERGALPMIDRGDIRQAIDRCSNIWASLPGAGYGQFEHKADSLIAKFKEAGGTVREIDV

Variants of: B1
Details: Escherichia phage lambda; pH 4; Thermal; Fluorescence; phosphate 0.1 M; reversible: yes; structure 1AM7; whole UniProt chain shown

| Variant | Tm | unfolding enthalpy (calorimetric) | unfolding enthalpy (van 't Hoff) |
| --- | --- | --- | --- |
| H31N H137N | 24.5 °C and 26 °C | 40.3 kcal/mol and 43.3 kcal/mol | 29 kcal/mol and 35.4 kcal/mol |

Same assay, conditions: Escherichia phage lambda; pH 4.5; Thermal; Fluorescence; phosphate 0.1 M; reversible: yes; structure 1AM7; whole UniProt chain shown

| Variant | Tm [°C] | unfolding enthalpy (calorimetric) [kcal/mol] | unfolding enthalpy (van 't Hoff) [kcal/mol] |
| --- | --- | --- | --- |
| H31N H137N | 39.3 | 69.9 | 71 |

Same assay, conditions: Escherichia phage lambda; pH 5.5; Thermal; Fluorescence; phosphate 0.1 M; reversible: yes; structure 1AM7; whole UniProt chain shown

| Variant | Tm [°C] | unfolding enthalpy (calorimetric) [kcal/mol] | unfolding enthalpy (van 't Hoff) [kcal/mol] |
| --- | --- | --- | --- |
| H31N H137N | 51.1 | 93.5 | 107 |

Same assay, conditions: Escherichia phage lambda; pH 6; Thermal; Fluorescence; phosphate 0.1 M; reversible: yes; structure 1AM7; whole UniProt chain shown

| Variant | Tm [°C] | unfolding enthalpy (calorimetric) [kcal/mol] | unfolding enthalpy (van 't Hoff) [kcal/mol] |
| --- | --- | --- | --- |
| H31N H137N | 52.7 | 96.7 | 93 |

Same assay, conditions: Escherichia phage lambda; pH 6.5; Thermal; Fluorescence; phosphate 0.1 M; reversible: yes; structure 1AM7; whole UniProt chain shown

| Variant | Tm [°C] | unfolding enthalpy (calorimetric) [kcal/mol] | unfolding enthalpy (van 't Hoff) [kcal/mol] |
| --- | --- | --- | --- |
| H31N H137N | 53.6 | 98.5 | 111 |

Same assay, conditions: Escherichia phage lambda; pH 6.57; Thermal; Fluorescence; phosphate 0.1 M; reversible: yes; structure 1AM7; whole UniProt chain shown

| Variant | Tm [°C] | unfolding enthalpy (calorimetric) [kcal/mol] | unfolding enthalpy (van 't Hoff) [kcal/mol] |
| --- | --- | --- | --- |
| H31N H137N | 50.8 | 92.9 | 100 |

Same assay, conditions: Escherichia phage lambda; pH 7.07; Thermal; Fluorescence; phosphate 0.1 M; reversible: yes; structure 1AM7; whole UniProt chain shown

| Variant | Tm [°C] | unfolding enthalpy (calorimetric) [kcal/mol] | unfolding enthalpy (van 't Hoff) [kcal/mol] |
| --- | --- | --- | --- |
| H31N H137N | 51.1 | 93.5 | 105 |

Same assay, conditions: Escherichia phage lambda; pH 7.57; Thermal; Fluorescence; phosphate 0.1 M; reversible: yes; structure 1AM7; whole UniProt chain shown

| Variant | Tm [°C] | unfolding enthalpy (calorimetric) [kcal/mol] | unfolding enthalpy (van 't Hoff) [kcal/mol] |
| --- | --- | --- | --- |
| H31N H137N | 51 | 93.3 | 101 |

Same assay, conditions: Escherichia phage lambda; pH 8.07; Thermal; Fluorescence; phosphate 0.1 M; reversible: yes; structure 1AM7; whole UniProt chain shown

| Variant | Tm [°C] | unfolding enthalpy (calorimetric) [kcal/mol] | unfolding enthalpy (van 't Hoff) [kcal/mol] |
| --- | --- | --- | --- |
| H31N H137N | 50.1 | 91.5 | 91 |
